For test [1], the target named is CfrA (Campylobacter jejuni). Kind of test: ELISA on directly coated CfrA (200 ng/well), serial dilution of purified VHH, anti-FLAG + anti-mouse-HRP, OPD, absorption at 490 nm. (In general: In an ELISA, binding on a coated surface is turned into a signal by an enzyme label.)
Test [2] has as its target CadF (Campylobacter jejuni). Kind of test: ELISA on directly coated CadF (200 ng/well), serial dilution of purified VHH, rabbit anti-VHH + anti-rabbit-HRP, OPD, absorption at 490 nm.
The target of test [3] is C. jejuni flagella (Campylobacter jejuni). Kind of test: apparent affinity estimated from ELISA dose response on immobilized Cj flagella.
For test [4] the target is unchanged. Put plainly: ELISA dose response, purified VHH on immobilized Cj flagella, rabbit anti-VHH detection.
The target of test [5] is CjaD (Campylobacter jejuni). Kind of test: ELISA on directly coated CjaD (200 ng/well), serial dilution of purified VHH, anti-FLAG + anti-mouse-HRP, OPD, absorption at 490 nm.
The target of test [6] is CmeC (Campylobacter jejuni). Put plainly: ELISA on directly coated CmeC (200 ng/well), serial dilution of purified VHH, anti-FLAG + anti-mouse-HRP, OPD, absorption at 490 nm.
Test [7] addresses CjaD (Campylobacter jejuni). Kind of test: apparent affinity from ELISA dose response, purified VHH on immobilized CjaD, anti-FLAG detection.

The EC50 (read off the curve) is the concentration needed to bring the measured effect to its halfway point.

B1: CfrA-ECA-1G7 (VHH, not shown: small tags and cut ends)
VHH: EVQLVESGGGLVQPGGSLRLSCTASGSSLDYYAIGWFRQAPGKEREGVSCISSRDGRIYWADSVEGRFTISRDNGKNTVYLQMNSLKPEDTAVYYCATSRWSFCPSDWSPVPSPFGSWGQGTQVTVSS
Regarding B1, the EC50 (read off the curve) in test [1] is 9 nM.

B2: CadF-ECF-1F10 (VHH, not shown: small tags and cut ends)
VHH: EVQLVESGGGSVQAGGSLRLSCTASIRAGNRYAMGWFRQAPGKEREFVAGISWSGGNTYHADSVNGRFTISRDNAKNTLYLTMNSLKSEDTAVYYCAASWKPLTFRGDDYTYWGQGTQVTVSS
On to B2, for which the EC50 (read off the curve) in test [2] came to 0.4 nM.

B3: Flagella-ECF-1F4 (VHH)
VHH: EVQLVESGGGLVQPGGSLRLSCEAAGSILRVNSMGWYRQAPGKQRDLVSIITSNNDAKYSDSVRGRFTISRDNAKNTVYLQMSSLKPDDTAVYYCNAYVETAGWIPTTHNLWGQGTQVTVSS
As for B3, the Kd in test [3] is 0.6 nM. Further, in test [4], the Relative Bmax is 2.5.

B4: CjaD-ECD-1A7 (VHH, not shown: small tags and cut ends)
VHH: EVQLVESGGGLVQAGGSLRLSCATSGFTPGDYAIGWFRQAPGKAREGVSCLSTRDGTTYYADSVKGRFTISTDNAQNTVYLQMNSLKPEDTAVYYCAGEQISFRAVYYCTEYEPVYWSQGTQVTVSS
On to B4, for which the EC50 (read off the curve) in test [5] worked out at 2 nM.

B5: CmeC-ECM-1G7 (VHH)
VHH: EVQLVESGGDLVQDGGSLRLSCAASGGDFRNPVTGWYRQAPGKQRELVGLITSDGRTNYGDSVMGRFTISMDTAKNTMYLQMNSLKPEDSAVYYCAASLLYGGLQFSTNIWGQGTQVTVSS
With B5, the EC50 (read off the curve) in test [6] turned out to be 0.3 nM.

B6: CmeC-ECM-1D6 (VHH)
VHH: EVQLVESGGGLVQAGGSLRLSCAASGGTFSRYMMGWFRQAPGKEREFVASIARSGGTYFADSVKGRLTATRDDAKNTMHLQMNSLKPEDTAVYYCAAGAGGSYPALLDFEYLVWGQGTQVTVSS
Consider B6, for which, in test [6], the EC50 (read off the curve) came to 0.7 nM.

B7: CmeC-ECM-1C11 (VHH)
VHH: EVQLVESGGGLVQPGGSLRLSCAASGFTFSDQPMGWYRQAPGQGREWIAFISSGSGGTTDYKNSVKGRFTISRDNAKNIVYLQMNSLKPDDTARYYCNFRIDNNYWGQGTQVTVSS
Regarding B7, in test [6], the EC50 (read off the curve) came to 0.4 nM.

B8: CadF-ECF-1D10 (VHH, not shown: small tags and cut ends)
VHH: EVQLVESGGGLVQPGGSLRLSCAASGFTLDDYAVGWFRQAPGKEREWLSGISSRDGSTVYADSVKGRFTISRDNAKNTYYLQMNSLKPEDTAVYYCAAAVGYILTRVKSHYNDWSQGTQVTVSS
For the molecule B8, the EC50 (read off the curve) in test [2] was found to be 0.7 nM.

B9: Flagella-ECF-1D9 (VHH)
VHH: EVQLVESGGGLVEPGGSLRLSCATSGFAFDNYCMYWVRQAPGKGLEWISGITNSGSFSYYADSVKGRFTISRDNAKNTLFLEMNSLTVDDTAVYYCAIHGHGCTWDSLRTTSGPRYRGQGTQVTVSS
With B9, the Kd in test [3] was 9 nM. The Relative Bmax in test [4] is 3.

B10: Flagella-ECF-1B6 (VHH)
VHH: EVQLVESGGGLVQSGGSLRLSCAASGRIFSITNMGWYRQAPGEQRELVADMPSGGSTNYADSVKGRFTISRDIAKNTVYLQMNSLKPEDTAVYYCNLKMSQPGWLVTNHNFWGQGTQVTVSS
As to B10, in test [3], the Kd is 5 nM. This molecule also gave a Relative Bmax in test [4] of 2.5.

B11: CjaD-ECD-1D3 (VHH, not shown: small tags and cut ends)
VHH: EVQLVESGGGLVQTGGSLRLSCATSGFTFEYSAIAWFRQAPGKGREGVSCISNRDGTTVYADSVKGRFTISSDNAKNTVYLQMNSLTPEDTGVYYCAADAGVYTADYCRDSRYDPVSKDAWGKGTLVTVSS
With B11, in test [7], the Kd was 0.06 nM.

B12: Flagella-ECF-1G8 (VHH)
VHH: EVQLVESGGGLVEAGGSLTLSCTTSEPTSLLNLMGWWRQGPGKEREFVASSNWSGKLVDYADGVEGRFTVIRNEDENAISLQMNSLTVEDTAIYYCAASRLGLPRSAQANQYWGQGTQVTVSS
As to B12, the Kd in test [3] is 7 nM. Further, the Relative Bmax in test [4] amounted to 2.5.

B13: Flagella-ECF-1C4 (VHH)
VHH: EVQLVESGGGLVQAGGSLRVSCAASGRAVHNYALNWFRQAPGKAREFVSAISWTRRTYYANSVRGRFTISRDNNGNMVHLQMSNLKSEDTALYYCAAATTWPRLDGAEYWGQGTQVTVSS
For B13, the Kd in test [3] is 4 nM. In addition, the Relative Bmax in test [4] was found to be 3.

These data come from patent publication US20250270298A1.
